# Legend:
# [1] = system: T1, Nc1ncnc2c1ncn2[C@@H]1O[C@H](COP(=O)(O)OP(=O)(O)OP(=O)(O)O)[C@@H](O)[C@H]1O; experiment: coupled pyruvate kinase/lactate dehydrogenase NADH ATPase assay, Hill fit; assay type: biochemical, Thermus thermophilus; settings: 10 mM MgCl2, 25 mM Hepes pH 7.8, 25 mM KCl, 0.01% Tween 20, 25 °C, ATP 50 μM to 3 mM, 1 μM ClpB
# T1 construct: N-terminal domain removed, starts at residue 141; His6 tag with TEV site (pET28b); expressed in E. coli BL21 (DE3) pLysS; homohexamer
# Description: coupled pyruvate kinase/lactate dehydrogenase NADH ATPase assay, Hill fit on ΔN-ClpB (ClpB) | plotted as a function of ATP concentration and fitted to the Hill equation
# [2] = target: ClpB hexamer assembled with a single double-labeled S236C-S359C protomer (PL1 variant) (Thermus thermophilus) (UniProt Q9RA63)
# ClpB hexamer assembled with a single double-labeled S236C-S359C protomer (PL1 variant) (Thermus thermophilus), sequence (Q9RA63 141-854 S236C/S359C, chain 1 of 2): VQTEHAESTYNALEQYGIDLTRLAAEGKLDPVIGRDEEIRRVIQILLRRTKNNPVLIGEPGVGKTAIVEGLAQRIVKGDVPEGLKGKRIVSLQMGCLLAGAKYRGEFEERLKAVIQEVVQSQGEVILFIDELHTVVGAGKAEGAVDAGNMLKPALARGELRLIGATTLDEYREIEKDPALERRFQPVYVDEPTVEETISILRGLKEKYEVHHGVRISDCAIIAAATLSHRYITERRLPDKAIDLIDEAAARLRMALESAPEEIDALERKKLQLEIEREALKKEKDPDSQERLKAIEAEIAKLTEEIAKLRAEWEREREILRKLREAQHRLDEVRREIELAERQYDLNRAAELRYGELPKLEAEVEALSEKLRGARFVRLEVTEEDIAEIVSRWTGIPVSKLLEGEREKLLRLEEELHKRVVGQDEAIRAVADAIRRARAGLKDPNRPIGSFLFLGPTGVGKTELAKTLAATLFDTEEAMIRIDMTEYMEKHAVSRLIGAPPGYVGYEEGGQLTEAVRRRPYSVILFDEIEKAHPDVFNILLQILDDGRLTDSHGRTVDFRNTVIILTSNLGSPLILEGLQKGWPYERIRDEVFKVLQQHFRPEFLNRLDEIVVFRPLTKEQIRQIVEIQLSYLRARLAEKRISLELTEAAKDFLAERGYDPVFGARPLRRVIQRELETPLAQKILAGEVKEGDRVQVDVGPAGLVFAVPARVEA
# ClpB hexamer assembled with a single double-labeled S236C-S359C protomer (PL1 variant) (Thermus thermophilus), sequence (Q9RA63 141-854, stated change not applied, chain 2 of 2): as the sequence (Q9RA63 141-854 S236C/S359C, chain 1 of 2) above, with C96S, C219S counted along it
# [3] = target: ClpB hexamer assembled with a single double-labeled S359C-Y646C protomer (PL3 variant) (Thermus thermophilus) (UniProt Q9RA63)
# ClpB hexamer assembled with a single double-labeled S359C-Y646C protomer (PL3 variant) (Thermus thermophilus), sequence (Q9RA63 141-854 S359C/Y646C, chain 1 of 2): as the sequence (Q9RA63 141-854 S236C/S359C, chain 1 of 2) above, with C96S, Y506C counted along it
# ClpB hexamer assembled with a single double-labeled S359C-Y646C protomer (PL3 variant) (Thermus thermophilus), sequence (Q9RA63 141-854, stated change not applied, chain 2 of 2): as the sequence (Q9RA63 141-854 S236C/S359C, chain 1 of 2) above, with C96S, C219S counted along it
# [4] = target: ClpB hexamer assembled with a single double-labeled S236C-S359C protomer (PL1 variant) (Thermus thermophilus) (UniProt Q9RA63); remark: listed apart in the source
# ΔN-ClpB (ClpB) (Thermus thermophilus HB8), sequence (chain, as listed by the source mutant): as the sequence (Q9RA63 141-854 S236C/S359C, chain 1 of 2) above, with C96S, C219S counted along it
Substance,K0.5 [1] [µM],"smFRET: substrate-response factor R1 (ratio of K12^1 with and without 20 μM κ-casein), with ATP [2]","smFRET: substrate-response factor R3 (ratio of K12^3 with and without 20 μM κ-casein), with ADP [3]","smFRET: substrate-response factor R3 (ratio of K12^3 with and without 20 μM κ-casein), with ATP [3]","smFRET: substrate-response factor R3 (ratio of K12^3 with and without 20 μM κ-casein), with ATPγS [3]","smFRET with two-state H2MM analysis, 2 mM ATP: population ratio K12^1 of the two PL1 states without and with 20 μM κ-casein [4]"
ΔN-ClpB (ClpB) (Thermus thermophilus HB8),300 ± 20,,,,,
κ-casein (from UniProt P02668 22-190) (natural protein),,1.68,1.71,2.28,1.34,0.81

# — publication PMC8442866, “Ultrafast pore-loop dynamics in a AAA+ machine point to a Brownian-ratchet mechanism for protein translocation” (Science Advances, 2021)
